Data published in patent US20240409627A1.
Values belong to the molecule of their own block, whether it stands above or below them.

Experiments:
recombinant inhibin A = recombinant inhibin A (UniProt P05111); experiment: cell-based or functional assay
[1] = molecular target: HA-tagged endoglin (endoglin-L) (UniProt P17813); experiment: patch/FRAP on live COS7 cells; HA-endoglin immobilized by IgG cross-linking, Fab'-labeled myc-ALK1 measured; no inhibin
[2] = molecular target: HA-tagged endoglin (endoglin-L) (UniProt P17813); experiment: patch/FRAP on live COS7 cells; HA-endoglin immobilized by IgG cross-linking, Fab'-labeled myc-ALK1 measured; in the presence of 4 nM inhibin A
[3] = molecular target: T1, endoglin on HMEC-1 human microvascular endothelial cells (human) (UniProt P17813); experiment: cell-based or functional assay
T1 sequence (looked up): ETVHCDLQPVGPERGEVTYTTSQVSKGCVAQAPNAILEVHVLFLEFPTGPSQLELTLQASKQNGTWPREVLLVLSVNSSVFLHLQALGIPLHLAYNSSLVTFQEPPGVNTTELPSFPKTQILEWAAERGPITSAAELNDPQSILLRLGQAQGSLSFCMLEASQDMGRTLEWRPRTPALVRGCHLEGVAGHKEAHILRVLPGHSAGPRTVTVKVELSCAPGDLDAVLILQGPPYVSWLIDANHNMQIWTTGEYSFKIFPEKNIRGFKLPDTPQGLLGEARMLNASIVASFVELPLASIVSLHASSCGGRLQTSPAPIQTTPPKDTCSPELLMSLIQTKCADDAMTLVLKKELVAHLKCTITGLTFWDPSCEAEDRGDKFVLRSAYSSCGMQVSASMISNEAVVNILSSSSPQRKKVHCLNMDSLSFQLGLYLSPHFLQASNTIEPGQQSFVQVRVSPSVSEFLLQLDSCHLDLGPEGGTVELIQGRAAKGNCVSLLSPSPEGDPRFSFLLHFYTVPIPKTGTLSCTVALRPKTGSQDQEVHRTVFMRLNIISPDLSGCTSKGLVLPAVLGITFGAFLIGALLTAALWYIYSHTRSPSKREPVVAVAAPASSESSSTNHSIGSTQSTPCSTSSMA

Chain of UniProt P05111 (P05111 233-366 limits assumed, chain 1 of 2): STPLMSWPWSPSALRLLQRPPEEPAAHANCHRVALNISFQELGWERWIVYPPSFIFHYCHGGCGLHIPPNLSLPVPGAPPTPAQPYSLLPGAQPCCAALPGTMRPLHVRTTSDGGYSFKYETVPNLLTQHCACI
Chain of UniProt P05111 (P08476 311-426 limits assumed, chain 2 of 2, further chain): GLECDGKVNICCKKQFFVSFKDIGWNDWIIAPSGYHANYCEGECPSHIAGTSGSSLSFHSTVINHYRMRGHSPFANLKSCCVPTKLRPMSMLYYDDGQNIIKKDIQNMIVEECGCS

- fold decrease in inhibin A induced permeability of HMEC-1 monolayer at 4 h (FITC-dextran), 10 ng/mL ALK1-Fc (recombinant inhibin A): 1.5 times
Molecule: ALK1-Fc, a human chimeric ALK1 protein (from UniProt P37023 22-118) (Fc fusion)

- reduction in Rf (mobile fraction) [1]: 45%
- reduction in Rf (mobile fraction) [2]: 70%
Molecule: myc-tagged ALK1 (from UniProt P37023 22-503) (receptor)

- fold decrease in inhibin A induced permeability of HMEC-1 monolayer at 4 h (FITC-dextran), 100 µg/mL TRC105 [3]: 2.2 times
B1: Tracon 105 (TRC105), a humanized endoglin monoclonal antibody (antibody, INN chains, looked up, V domains shown)
VH: EVKLEESGGGLVQPGGSMKLSCAASGFTFSDAWMDWVRQSPEKGLEWVAEIRSKASNHATYYAESVKGRFTISRDDSKSSVYLQMNSLRAEDTGIYYCTRWRRFFDSWGQGTTLTVSS
VL: QIVLSQSPAILSASPGEKVTMTCRASSSVSYMHWYQQKPGSSPKPWIYATSNLASGVPVRFSGSGSGTSYSLTISRVEAEDAATYYCQQWSSNPLTFGAGTKLELK
